Tested on: peptide library, one residue held at a place counted from the S/T acceptor
Test: relative phosphorylation of the sub-library (ratio to the mean residue at this position); higher = residue favoured
Conditions: human
In short: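 Purified recombinant kinases, either human or orthologue constructs, were incubated in 384-well plates with biotinylated degenerate peptide sub-libraries. Each sub-library fixed one residue at one position around a central Ser/Thr. Peptides at 50 μM and 50 μM ATP spiked with γ-32P-ATP were used for 90 min under kinase-specific conditions, and spots on streptavidin membranes were phosphorimaged and quantified by densitometry. Relative sub-library phosphorylation is expressed as a ratio to the mean residue at that position.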

MARK3, construct: Full length, sequence (P27448 whole entry, looked up): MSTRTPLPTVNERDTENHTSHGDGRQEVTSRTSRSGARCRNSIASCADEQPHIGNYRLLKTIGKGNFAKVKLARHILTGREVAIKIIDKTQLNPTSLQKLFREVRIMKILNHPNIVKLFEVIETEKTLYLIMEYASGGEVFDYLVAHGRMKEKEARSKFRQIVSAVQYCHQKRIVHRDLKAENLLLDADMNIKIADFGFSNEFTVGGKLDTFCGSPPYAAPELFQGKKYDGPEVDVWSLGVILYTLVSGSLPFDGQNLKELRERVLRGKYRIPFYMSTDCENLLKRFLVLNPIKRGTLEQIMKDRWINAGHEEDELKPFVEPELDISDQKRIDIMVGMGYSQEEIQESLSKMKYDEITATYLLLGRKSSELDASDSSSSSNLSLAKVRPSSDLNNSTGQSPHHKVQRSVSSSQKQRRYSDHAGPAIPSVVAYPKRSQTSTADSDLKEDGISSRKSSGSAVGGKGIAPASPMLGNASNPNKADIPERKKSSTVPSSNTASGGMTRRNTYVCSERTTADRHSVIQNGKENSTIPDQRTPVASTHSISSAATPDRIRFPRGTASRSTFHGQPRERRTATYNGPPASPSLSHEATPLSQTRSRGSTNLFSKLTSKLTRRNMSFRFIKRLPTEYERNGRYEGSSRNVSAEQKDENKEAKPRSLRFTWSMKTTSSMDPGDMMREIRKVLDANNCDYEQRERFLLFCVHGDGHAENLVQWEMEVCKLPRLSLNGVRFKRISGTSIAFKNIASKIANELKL
MINK1, construct: aa1-320, sequence (Q8N4C8 1-320, looked up): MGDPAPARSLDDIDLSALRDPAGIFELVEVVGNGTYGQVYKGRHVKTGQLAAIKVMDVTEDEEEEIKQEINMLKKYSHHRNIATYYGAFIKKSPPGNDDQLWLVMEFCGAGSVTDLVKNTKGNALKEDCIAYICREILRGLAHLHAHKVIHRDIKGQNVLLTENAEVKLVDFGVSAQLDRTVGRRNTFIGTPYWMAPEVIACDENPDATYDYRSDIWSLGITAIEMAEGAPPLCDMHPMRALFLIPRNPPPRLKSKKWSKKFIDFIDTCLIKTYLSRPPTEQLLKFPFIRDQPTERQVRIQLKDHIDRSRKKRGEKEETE
MAPKAPK2, construct: Full length, sequence (P49137 whole entry, looked up): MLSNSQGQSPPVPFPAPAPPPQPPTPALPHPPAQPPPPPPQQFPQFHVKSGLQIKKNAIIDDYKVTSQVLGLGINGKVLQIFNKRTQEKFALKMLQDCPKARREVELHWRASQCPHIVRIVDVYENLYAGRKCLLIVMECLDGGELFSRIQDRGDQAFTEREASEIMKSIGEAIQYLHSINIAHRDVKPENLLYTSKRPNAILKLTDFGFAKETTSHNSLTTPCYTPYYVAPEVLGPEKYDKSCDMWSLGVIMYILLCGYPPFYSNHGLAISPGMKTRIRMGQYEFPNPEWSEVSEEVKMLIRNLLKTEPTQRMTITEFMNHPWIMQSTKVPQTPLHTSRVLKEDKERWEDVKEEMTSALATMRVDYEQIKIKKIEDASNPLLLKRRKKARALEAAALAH

MAPKAPK2, construct: Full length (from UniProt P49137)
relative phosphorylation
Conditions | at +1 | at +2 | at +3 | at +4 | at -1 | at -2 | at -3 | at -4 | at -5
A fixed | 0.699 | 0.907 | 0.885 | 0.974 | 0.808 | 1.19 | 0.604 | 1.22 | 0.754
D fixed | 0.716 | 1.92 | 2.48 | 1.79 | 1.12 | 0.349 | 0.262 | 0.669 | 0.268
E fixed | 1.27 | 1.5 | 2.42 | 1.7 | 0.802 | 0.749 | 0.302 | 1.17 | 0.22
F fixed | 0.729 | 0.59 | 0.436 | 0.561 | 0.69 | 0.568 | 0.212 | 0.659 | 1.39
G fixed | 0.752 | 1.47 | 1.58 | 1.39 | 0.733 | 1.14 | 0.445 | 0.999 | 0.366
H fixed | 1.52 | 1.18 | 1.1 | 1.01 | 1.38 | 0.778 | 1.08 | 1.07 | 0.67
I fixed | 0.928 | 0.688 | 0.313 | 0.575 | 0.664 | 0.438 | 0.111 | 0.696 | 1.28
K fixed | 0.861 | 0.655 | 0.784 | 0.987 | 1.2 | 0.693 | 1.91 | 1.75 | 0.51
L fixed | 0.728 | 0.594 | 0.432 | 0.579 | 0.949 | 1.04 | 0.171 | 0.954 | 1.65
M fixed | 1.27 | 0.616 | 0.43 | 0.598 | 0.994 | 1.67 | 0.275 | 1.23 | 1.14
N fixed | 1.43 | 1.4 | 1.07 | 1.23 | 1.49 | 0.846 | 0.645 | 0.843 | 0.345
P fixed | 0.206 | 1.48 | 1.75 | 1.84 | 1.69 | 0.655 | 0.889 | 0.805 | 1.42
Q fixed | 1.47 | 1.04 | 1.17 | 1.07 | 1.31 | 3.73 | 1.03 | 1.33 | 0.941
R fixed | 1.36 | 0.726 | 0.631 | 0.755 | 0.778 | 1.37 | 7.97 | 1.61 | 1.59
V fixed | 1.14 | 0.885 | 0.501 | 0.739 | 0.87 | 0.615 | 0.154 | 0.725 | 1.1
W fixed | 0.801 | 0.642 | 0.5 | 0.646 | 0.582 | 0.586 | 0.636 | 0.661 | 2.38
Y fixed | 1.12 | 0.708 | 0.521 | 0.564 | 0.935 | 0.577 | 0.296 | 0.599 | 0.983
pThr fixed | 1.61 | 1.04 | 1.11 | 1.83 | 0.519 | 0.372 | 0.258 | 0.504 | 0.365
pTyr fixed | 5.15 | 2.06 | 1.63 | 1.61 | 1.04 | 0.397 | 0.218 | 0.557 | 0.646

MARK3, construct: Full length (from UniProt P27448)
relative phosphorylation
Conditions | at +1 | at +2 | at +3 | at +4 | at -1 | at -2 | at -3 | at -4 | at -5
A fixed | 0.634 | 0.761 | 0.599 | 0.335 | 1.09 | 2.23 | 0.806 | 1.19 | 1.16
D fixed | 0.414 | 0.68 | 2.56 | 0.456 | 0.61 | 0.317 | 0.412 | 0.765 | 0.758
E fixed | 0.82 | 0.902 | 0.95 | 0.319 | 0.605 | 0.263 | 0.458 | 0.703 | 0.72
F fixed | 0.651 | 0.746 | 0.792 | 0.619 | 0.499 | 1.29 | 0.758 | 0.987 | 1.12
G fixed | 0.542 | 0.47 | 0.559 | 0.385 | 2.52 | 1.37 | 0.687 | 1.32 | 1.03
H fixed | 0.76 | 0.879 | 1.56 | 0.489 | 0.708 | 1.21 | 1.41 | 1.19 | 0.86
I fixed | 1.14 | 0.863 | 0.486 | 2.82 | 0.441 | 0.444 | 0.497 | 0.565 | 0.817
K fixed | 0.932 | 0.651 | 0.731 | 0.487 | 1.92 | 0.995 | 2.2 | 1.71 | 1.4
L fixed | 1.25 | 1.16 | 0.782 | 5.82 | 0.654 | 0.392 | 0.6 | 0.642 | 1.49
M fixed | 2.38 | 0.994 | 0.708 | 1.22 | 0.75 | 0.571 | 0.772 | 0.833 | 1.06
N fixed | 1.26 | 0.998 | 3.05 | 0.526 | 1.06 | 0.583 | 0.682 | 0.916 | 0.627
P fixed | 0.337 | 0.826 | 0.2 | 0.348 | 1.37 | 0.546 | 0.925 | 1.13 | 0.964
Q fixed | 1.62 | 0.955 | 0.929 | 0.473 | 1.19 | 0.488 | 0.736 | 0.808 | 0.722
R fixed | 1.45 | 0.708 | 0.706 | 0.349 | 1.66 | 0.969 | 3.51 | 1.52 | 1.45
V fixed | 1.23 | 0.898 | 0.488 | 1.33 | 0.707 | 0.628 | 0.524 | 0.673 | 0.824
W fixed | 0.75 | 3.62 | 0.927 | 0.557 | 0.585 | 3.05 | 1.19 | 1.19 | 1.08
Y fixed | 0.831 | 0.888 | 0.969 | 0.461 | 0.633 | 1.65 | 0.83 | 0.856 | 0.915
pThr fixed | 1.49 | 1.34 | 0.404 | 0.369 | 0.348 | 0.44 | 0.553 | 0.726 | 0.573
pTyr fixed | 0.705 | 0.679 | 0.944 | 0.328 | 0.841 | 0.64 | 0.855 | 0.686 | 0.735

MINK1, construct: aa1-320 (from UniProt Q8N4C8)
relative phosphorylation
Conditions | at +1 | at +2 | at +3 | at +4 | at -1 | at -2 | at -3 | at -4 | at -5
A fixed | 0.635 | 0.904 | 0.864 | 0.99 | 0.952 | 1.11 | 1.02 | 1.08 | 1.28
D fixed | 0.177 | 0.699 | 0.464 | 0.556 | 0.854 | 0.746 | 0.867 | 1 | 0.995
E fixed | 0.187 | 0.749 | 0.405 | 0.574 | 0.536 | 0.498 | 0.818 | 0.891 | 0.801
F fixed | 1.16 | 0.577 | 0.764 | 0.533 | 0.778 | 1.55 | 0.946 | 1.07 | 0.8
G fixed | 0.708 | 1.09 | 0.959 | 1.28 | 1.69 | 1.19 | 1.19 | 1.19 | 1.2
H fixed | 0.783 | 1.25 | 1.25 | 1.22 | 1.31 | 1.13 | 1.2 | 1.08 | 1.09
I fixed | 1.91 | 0.664 | 0.726 | 0.983 | 0.385 | 0.769 | 0.784 | 0.793 | 0.894
K fixed | 0.669 | 1.93 | 2.35 | 1.94 | 1.25 | 0.713 | 1.01 | 0.947 | 0.979
L fixed | 2.89 | 0.776 | 0.869 | 0.75 | 0.926 | 0.789 | 0.829 | 0.78 | 0.73
M fixed | 2.32 | 0.86 | 0.681 | 0.897 | 1.15 | 0.952 | 0.95 | 0.917 | 0.87
N fixed | 0.677 | 0.937 | 0.721 | 1.04 | 1.49 | 1.03 | 1.26 | 1.03 | 1.09
P fixed | 0.194 | 1.09 | 0.892 | 0.943 | 0.646 | 0.675 | 0.846 | 0.959 | 1.06
Q fixed | 0.587 | 0.914 | 0.818 | 0.926 | 1.11 | 0.882 | 0.9 | 0.996 | 0.958
R fixed | 0.65 | 2.39 | 2.76 | 1.74 | 1.4 | 0.821 | 1.15 | 0.971 | 1.19
V fixed | 1.06 | 0.763 | 0.773 | 0.743 | 0.536 | 0.893 | 0.858 | 0.966 | 0.98
W fixed | 1.45 | 0.591 | 0.928 | 1.07 | 0.822 | 1.38 | 1.28 | 1.18 | 0.978
Y fixed | 0.94 | 0.815 | 0.778 | 0.818 | 1.17 | 1.87 | 1.09 | 1.15 | 1.1
pThr fixed | 0.703 | 0.621 | 0.744 | 0.601 | 0.629 | 0.963 | 1.18 | 1.07 | 1.14
pTyr fixed | 0.282 | 0.462 | 0.623 | 0.51 | 0.797 | 0.745 | 1.04 | 0.679 | 1.06

— the supplement of paper PMC9876800
